Tests used:
[1] = molecular target: MacQ heterodimer consisting of an α-chain and a β-chain (wild-type, cleaved form) (Acidovorax sp. strain MR-S7); test: SEC; analytical gel filtration, Superose 6 10/300 GL, 50 mM sodium phosphate pH 8.0, 200 mM NaCl, 0.4 mL/min
[2] = molecular target: MacQ heterodimer consisting of an α-chain and a β-chain (wild-type, cleaved form) (Acidovorax sp. strain MR-S7); test: crystal structure; wild-type MacQ, ligand-free and with the reaction products C10 and PAA; crystals at 20 °C from 100 mM Tris-HCl pH 7.5–8.5, 0.1–0.2 M calcium acetate, 14–18% PEG 3350

MacQ heterodimer consisting of an α-chain and a β-chain (wild-type, cleaved form) (complex)
stoichiometry N [1]: 2
stoichiometry N [2]: 2

— paper PMC5566955
